Results as given in patent US20070031331A1 (Genentech, published 2007).

T1: human CD20 (human, UniProt P11836 1-297)
T1 construct: whole, on cells; also called CD20 antigen; Bp35
T1 sequence (looked up): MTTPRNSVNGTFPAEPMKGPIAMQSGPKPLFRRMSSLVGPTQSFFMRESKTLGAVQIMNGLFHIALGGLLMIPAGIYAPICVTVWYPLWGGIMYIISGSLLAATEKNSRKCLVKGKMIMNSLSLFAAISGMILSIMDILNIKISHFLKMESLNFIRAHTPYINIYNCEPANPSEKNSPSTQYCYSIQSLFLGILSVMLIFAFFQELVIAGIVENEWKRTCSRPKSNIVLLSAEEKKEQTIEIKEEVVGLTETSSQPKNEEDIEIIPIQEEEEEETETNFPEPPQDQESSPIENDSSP


Key:
human CD20 [1] = target: T1, human CD20; assay: cell-based ELISA on WIL2-S cells; conc. 2H7.v16 / conc. variant
Experimental: To measure relative binding affinities to the CD20 antigen, a cell-based ELISA assay was developed. […] The cells were washed with PBS containing 1% fetal bovine serum (FBS) (assay buffer) and seeded at 250-300,000 cell/well in 96-well round bottom plates (Nunc, Roskilde, Denmark). […] The plates were buried in ice and incubated for 45 min. To remove the unbound antibody, 0.1 mL assay buffer was added to the wells. Plates were centrifuged and supernatants were removed. Cells were washed two more times with 0.2 mL assay buffer. Antibody bound to the plates was detected by adding peroxidase-conjugated goat anti-human Fc antibody (Jackson ImmunoResearch, West Grove, Pa.) to the plates. After a 45-min incubation, cells were washed as described before. TMB substrate (3,3′,5,5′-tetramethyl benzidine; Kirkegaard & Perry Laboratories, Gaithersburg, Md.) was added to the plates. The reaction was stopped by adding 1 M phosphoric acid. Titration curves were fit with a four-parameter nonlinear regression curve-fitting program ([…] ™, Synergy software, Reading, Pa.). The absorbance at the midpoint of the titration curve (mid-OD) and its corresponding concentration of the standard were determined. Then the concentration of each variant at this mid-OD was determined, and the concentration of the standard was divided by that of each variant.

human CD20 [2] = target: T1, human CD20; assay: Scatchard analysis, cold antibody against 125I-2H7.v16 on WIL2-S cells, n=4
Experimental: All dilutions were performed in binding assay buffer (DMEM media containing 1% bovine serum albumin, 25 mM HEPES pH 7.2, and 0.01% sodium azide). […] WIL2-S cells (60,000 cells in 0.025 mL) were then added. The plate was sealed and incubated at room temperature for 24 hours, then centrifuged for 15 min at 3,500 RPM. The supernatant was then aspirated and the cell pellet was washed and centrifuged. The supernatant was again aspirated, and the pellets were dissolved in 1N NaOH and transferred to tubes for gamma counting.

Row | Relative binding (human CD20 [1]) [ratio] | Kd (human CD20 [2]) [nM] | Binder
1 | 0.99 | – | 2H7.v166 (antibody, human IgG1, kappa, V domains shown, IgG1; changes relative to 2H7.v16; Y100b is deleted (written as a change to nothing); also called 2H7 version 166) VH: EVQLVESGGGLVQPGGSLRLSCAASGYTFTSYNMHWVRQAPGKGLEWVGAIYPGNGDTSYNQKFKGRFTISVDKSKNTLYLQMNSLRAEDTAVYYCARVVYYGGDWYFDVWGQGTLVTVSS VL: DIQMTQSPSSLSASVGDRVTITCRASSSVSYMHWYQQKPGKAPKPLIYAPSNLASGVPSRFSGSGSGTDFTLTISSLQPEDFATYYCQQWSFNPPTFGQGTKVEIKR
2 | – | 1.22 | 2H7.v73 (antibody, IgG1, IgG1; changes relative to 2H7.v16; also called 2H7 version 73) heavy: not shown light: DIQMTQSPSSLSASVGDRVTITCRASSSVSYLHWYQQKPGKAPKPLIYAPSNLASGVPSRFSGSGSGTDFTLTISSLQPEDFATYYCQQWSFNPPTFGQGTKVEIKRTVAAPSVFIFPPSDEQLKSGTASVVCLLNNFYPREAKVQWKVDNALQSGNSQESVTEQDSKDSTYSLSSTLTLSKADYEKHKVYACEVTHQGLSSPVTKSFNRGEC
3 | – | 1.09 | 2H7.v75 (antibody, IgG1, IgG1; changes relative to 2H7.v16; also called 2H7 version 75) heavy: EVQLVESGGGLVQPGGSLRLSCAASGYTFTSYNMHWVRQAPGKGLEWVGAIYPGNGDTSYNQKFKGRFTISVDKSKNTLYLQMNSLRAEDTAVYYCARVVYYSASYWYFDVWGQGTLVTVSSASTKGPSVFPLAPSSKSTSGGTAALGCLVKDYFPEPVTVSWNSGALTSGVHTFPAVLQSSGLYSLSSVVTVPSSSLGTQTYICNVNHKPSNTKVDKKVEPKSCDKTHTCPPCPAPELLGGPSVFLFPPKPKDTLMISRTPEVTCVVVDVSHEDPEVKFNWYVDGVEVHNAKTKPREEQYNATYRVVSVLTVLHQDWLNGKEYKCKVSNKALPAPIAATISKAKGQPREPQVYTLPPSREEMTKNQVSLTCLVKGFYPSDIAVEWESNGQPENNYKTTPPVLDSDGSFFLYSKLTVDKSRWQQGNVFSCSVMHEALHNHYTQKSLSLSPGK light: DIQMTQSPSSLSASVGDRVTITCRASSSVSYLHWYQQKPGKAPKPLIYAPSNLASGVPSRFSGSGSGTDFTLTISSLQPEDFATYYCQQWSFNPPTFGQGTKVEIKRTVAAPSVFIFPPSDEQLKSGTASVVCLLNNFYPREAKVQWKVDNALQSGNSQESVTEQDSKDSTYSLSSTLTLSKADYEKHKVYACEVTHQGLSSPVTKSFNRGEC
